Measurements: patent US20260318927 (published 2026)
Residue numbers refer to the chain shown, from its start. Values belong to the binder of their own block, whether it stands above or below them.

Experiments:
MR-proADM [1] = biological target: T1, MR-proADM (human); test: SPR, 25C pH 7.4, Ab 2-c
T1 chain: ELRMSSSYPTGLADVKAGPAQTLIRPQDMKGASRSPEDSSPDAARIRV

MR-proADM [2] = biological target: T1, MR-proADM; test: SPR, antigen 1
MR-proADM [3] = biological target: T1, MR-proADM; test: SPR, antigen 2
MR-proADM [4] = biological target: T1, MR-proADM; test: SPR, 25C pH 7.4, Ab 2-b
MR-proADM [5] = biological target: T1, MR-proADM; test: SPR, 25C pH 7.4, Ab 2-a
MR-proADM [6] = biological target: T1, MR-proADM; test: SPR, 25C pH 7.4, Ab 3-b
MR-proADM [7] = biological target: T1, MR-proADM; test: SPR, 25C pH 7.4, Ab 3-c
MR-proADM [8] = biological target: T1, MR-proADM; test: SPR, 25C pH 7.4, Ab 3-a
MR-proADM [9] = biological target: T1, MR-proADM; test: SPR, 25C pH 7.4, Ab 3-d
MR-proADM [10] = biological target: T1, MR-proADM; test: SPR, 25C pH 7.4

Kd (MR-proADM [1]): 2.82 nM | Kd (MR-proADM [2]): 2.49 nM | Kd (MR-proADM [3]): 2.57 nM | Kd (MR-proADM [4]): 3.02 nM | Kd (MR-proADM [5]): 2.97 nM
B1: Ab2 (antibody, V domains shown)
VH: QIQLVQSGPELRKPGETVKISCKASGYTFTDYSMHWVKQVPGKVLKWMGWINTETGEPTYVDDFKGRFAFSLETSASTAYLRINILKNEDAATYFCATNFDYWGQGTTLTVSS
VL: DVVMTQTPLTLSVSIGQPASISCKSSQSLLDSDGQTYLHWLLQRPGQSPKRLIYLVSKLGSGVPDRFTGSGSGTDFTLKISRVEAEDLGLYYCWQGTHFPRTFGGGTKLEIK

Kd (MR-proADM [6]): 17.1 nM | Kd (MR-proADM [7]): 18.8 nM | Kd (MR-proADM [2]): 13.9 nM | Kd (MR-proADM [3]): 17.4 nM | Kd (MR-proADM [8]): 14.8 nM | Kd (MR-proADM [9]): 20.1 nM
B2: Ab3 (antibody, V domains shown)
VH: EVQLQQSGPELVRPGASVKISCKASGYSFTDYFMHWMKQSHVKSLEWIGRLNPYNGATNYNQNFKDKATLTVDKSSSTAYMELHSLTSEDSAVYYCLSFTTPPEAYWGQGTLVTVSA
VL: EIVMTQAAFSNPVTLGTSASISCRSNKSLLYSNGITYLFWYLQRPGQSPQLLIYQMSNLASGVPDRFSGSGSGTDFTLRISRVEAEDVGVYYCAQNLELPWTFGGGTKLEIK

Kd (MR-proADM [10]): 247 nM | Kd (MR-proADM [2]): 6.47 nM | Kd (MR-proADM [3]): 101 nM
B3: Ab5 (antibody, V domains shown)
VH: EVQLQQSGPELVKPGASVKISCKASGYSFTDYYMHWVKQSHVKSLEWIGRINPYNGATKYNQNFKDKASLTVDKSSSTAYMELHSLTSEDSAVYYCTRRYDNDDGDYWGQGTTLRVSS
VL: B2 VL with E1D, N26S, F39Y, R44K, G69S
